Reference: paper PMC8693174

What was measured:
Assay in all cases: potentiometry
Conditions in all cases: 25 °C; I = 0.1 M (KNO3); samples in 96 mM KNO3/4 mM HNO3; none (96 mM KNO3/4 mM HNO3); Free peptide, no metal, under argon
[1] = molecular target: Asp3 (position 3, ---RHDSG---)
[2] = molecular target: His2 (position 2, ----RHDSG--)
[3] = molecular target: Nterm1 (position 1, -----RHDSG-)

Protein: RHDSG [Amyloid-beta 5-9 peptide (Abeta5-9), Arg-His-Asp-Ser-Gly-NH2 (Homo sapiens (synthetic peptide))]
- pKa [1]: 3.17
- pKa [2]: 6.13
- pKa [3]: 7.37
